Test results: publication PMC4666417

Target: eEF1A1 (eukaryotic elongation factor 1 subunit A1), MYC/DDK-tagged (human) (UniProt P68104)
Assay: BLI; biotinylated eEF1 subunit (eEF1A1, eEF1B, eEF1D or eEF1G) immobilised on streptavidin biosensor; RT subunits, RT heterodimer, Gag or RTp66 mutants as analytes at 90, 30 and 10 nM (mutants at 90 nM); kinetic buffer 1 mM phosphate, 15 mM NaCl, 0.002% Tween-20, 0.1 mg/ml gelatine, 1000 rpm, OctetRed

eEF1A1 (eukaryotic elongation factor 1 subunit A1), MYC/DDK-tagged (human), sequence (P68104 whole entry): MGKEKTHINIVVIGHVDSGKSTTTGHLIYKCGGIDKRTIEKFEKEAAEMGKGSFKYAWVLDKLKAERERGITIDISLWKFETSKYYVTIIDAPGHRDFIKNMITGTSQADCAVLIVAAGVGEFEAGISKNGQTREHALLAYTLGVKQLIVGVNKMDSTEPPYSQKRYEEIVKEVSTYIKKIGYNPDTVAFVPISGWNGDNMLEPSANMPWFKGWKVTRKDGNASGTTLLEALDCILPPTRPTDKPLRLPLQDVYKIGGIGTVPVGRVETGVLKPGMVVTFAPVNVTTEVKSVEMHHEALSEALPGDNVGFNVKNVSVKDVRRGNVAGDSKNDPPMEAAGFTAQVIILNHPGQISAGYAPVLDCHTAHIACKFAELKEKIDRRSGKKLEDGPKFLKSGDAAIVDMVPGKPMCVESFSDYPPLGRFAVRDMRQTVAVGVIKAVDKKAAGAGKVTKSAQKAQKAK

Q: For “HIV-1 RT p66/p51 heterodimer, purified (from UniProt P04585 588-1147; P04585 588-1027) (complex)”, which Kd is on record?
A: 3.75 nM

Q: And the koff?
A: 0.000207 s⁻¹

Q: What about the kon of the same substance?
A: 55200 M⁻¹ s⁻¹

Q: What does the source list for “HIV-1 RT p51, 6xHis-tagged, purified (from UniProt P04585 588-1027) (natural protein; other documents disagree on this pair)”?
A: Kd: 4.13 nM; koff: 0.000185 s⁻¹; kon: 44800 M⁻¹ s⁻¹
